Laboratory results from paper PMC4310589.

Molecular target: purified recombinant full-length PNKP (human) (UniProt Q96T60)

3'-phosphatase activity of PNKP (50 fmol) in vitro with 25-400 fmol ATXN3-Q29: stimulation [fold]	3'-phosphatase activity of PNKP (50 fmol) in vitro with 50-200 fmol ATXN3-Q72: decrease [fold]	Substance
4		ATXN3-Q29 (WT with 29 polyQ repeats) (from UniProt P54252 1-361) (natural protein)
	3.5	ATXN3-Q72 (the pathological form with 72 polyQ repeats) (from UniProt P54252 1-361) (natural protein)
